Test results from PMC10487539, “Glutaryl-CoA Dehydrogenase Misfolding in Glutaric Acidemia Type 1” (International Journal of Molecular Sciences, 2023).
Numbering of substitutions follows the chain as printed. Names and notes keep the numbering of the source.

B1: recombinant human glutaryl-CoA dehydrogenase, wild type, MBP fusion (enzyme)
chain: RPEFDWQDPLVLEEQLTTDEILIRDTFRTYCQERLMPRILLANRNEVFHREIISEMGELGVLGPTIKGYGCAGVSSVAYGLLARELERVDSGYRSAMSVQSSLVMHPIYAYGSEEQRQKYLPQLAKGELLGCFGLTEPNSGSDPSSMETRAHYNSSNKSYTLNGTKTWITNSPMADLFVVWARCEDGCIRGFLLEKGMRGLSAPRIQGKFSLRASATGMIIMDGVEVPEENVLPGASSLGGPFGCLNNARYGIAWGVLGASEFCLHTARQYALDRMQFGVPLARNQLIQKKLADMLTEITLGLHACLQLGRLKDQDKAAPEMVSLLKRNNCGKALDIARQARDMLGGNGISDEYHVIRHAMNLEAVNTYEGTHDIHALILGRAITGIQAFTASK
notes: glutaryl-CoA dehydrogenase (GCDH), human cDNA in pMAL-c2X; the precursor has 438 amino acids and the first 44 are cut on mitochondrial import; No cleavage of MBP is described; The printed masses (tetramer 173.2 kDa) count without MBP; also called GCDH; WT; not shown: MBP, N-terminal, kept
B2: recombinant human GCDH variant R88C, MBP fusion (enzyme)
chain: B1 chain with R44C
notes: glutaryl-CoA dehydrogenase (GCDH), human cDNA in pMAL-c2X, patient variant; No cleavage of MBP is described; also called c.262C > T; not shown: MBP, N-terminal, kept
B3: recombinant human GCDH variant R138G, MBP fusion (enzyme)
chain: B1 chain with R94G
notes: glutaryl-CoA dehydrogenase (GCDH), human cDNA in pMAL-c2X, patient variant; No cleavage of MBP is described; also called c.412A > G; not shown: MBP, N-terminal, kept
B4: recombinant human GCDH variant A433V, MBP fusion (enzyme)
chain: B1 chain with A389V
notes: glutaryl-CoA dehydrogenase (GCDH), human cDNA in pMAL-c2X, patient variant; No cleavage of MBP is described; also called c.1298C > T; not shown: MBP, N-terminal, kept
B5: recombinant human GCDH variant V400M, MBP fusion (enzyme)
chain: B1 chain with V356M
notes: glutaryl-CoA dehydrogenase (GCDH), human cDNA in pMAL-c2X, patient variant; No cleavage of MBP is described; also called c.1198G > A; not shown: MBP, N-terminal, kept
B6: recombinant human GCDH variant M263V, MBP fusion (enzyme)
chain: B1 chain with M219V
notes: glutaryl-CoA dehydrogenase (GCDH), human cDNA in pMAL-c2X, patient variant; No cleavage of MBP is described; also called c.787A > G; not shown: MBP, N-terminal, kept
B7: recombinant human GCDH variant A421V, MBP fusion (enzyme)
chain: B1 chain with A377V
notes: glutaryl-CoA dehydrogenase (GCDH), human cDNA in pMAL-c2X, patient variant; No cleavage of MBP is described; also called c.1262C > T; not shown: MBP, N-terminal, kept
B8: recombinant human GCDH variant A433E, MBP fusion (enzyme)
chain: B1 chain with A389E
notes: glutaryl-CoA dehydrogenase (GCDH), human cDNA in pMAL-c2X, patient variant; No cleavage of MBP is described; also called c.1298C > A; not shown: MBP, N-terminal, kept
B9: recombinant human GCDH variant R227P, MBP fusion (enzyme)
chain: B1 chain with R183P
notes: glutaryl-CoA dehydrogenase (GCDH), human cDNA in pMAL-c2X, patient variant; No cleavage of MBP is described; also called c.680G > C; source: could not be purified by size-exclusion chromatography; not shown: MBP, N-terminal, kept
B10: recombinant human GCDH variant E414K, MBP fusion (enzyme)
chain: B1 chain with E370K
notes: glutaryl-CoA dehydrogenase (GCDH), human cDNA in pMAL-c2X, patient variant; No cleavage of MBP is described; also called c.1240G > A; not shown: MBP, N-terminal, kept

Key:
[1] = target: the molecule itself; assay: SEC; self-association; MBPTrap eluate on HiLoad 16/600 Superdex 200, 20 mM HEPES pH 7.0, 200 mM NaCl, 4 °C; higher oligomers or aggregates 45-55 mL, tetramers 65-75 mL, dimers 75-85 mL, monomers 85-95 mL
[2] = target: the molecule itself; assay: native gel or EMSA; self-association; BN-PAGE and Western blot of proteins purified by affinity chromatography; bands of monomer, dimer and tetramer as percent of total
[3] = target: the molecule itself; assay: SEC; self-association; as a1 but in 10 mM potassium phosphate buffer with 10% glycerol (used for A433V only), 4 °C

Row | Protein | binding result [1] | binding result [2] | also measured
1 | B1 | – | – | stoichiometry N [1]: 4
2 | B2 | binds | – | –
3 | B3 | – | binds | –
4 | B4 | – | – | binding result [3]: binds
5 | B5 | – | binds | –
6 | B6 | – | binds | –
7 | B7 | binds | – | –
8 | B8 | binds | – | –
9 | B9 | – | binds | –
10 | B10 | binds | – | –
